Experiment [1] deals with T1, acetic acid-extracted tail tendon mouse collagen I (mouse, UniProt P11087 152-1207; Q01149 86-1125).
T1 construct: collagen I alpha1 chain, mouse, tissue-extracted; collagen I alpha2 chain, mouse, tissue-extracted; also called collagen type I; full-length collagen; source: extracted from mouse tail tendons using 20 mM acetic acid
Put plainly: ELISA; solid-phase assay: collagen coated at 10 μg/ml in PBS; serially diluted FMOD or LOX; detected with anti-His tag or anti-LOX antibodies; apparent KD. The note with it: both partners purified. In general terms: An ELISA detects its analyte on a solid surface through an enzyme-linked reagent.

Experiment [2] deals with T2, recombinant lysyl oxidase protein (Origene) (UniProt P28300 22-417).
T2 construct: lysyl oxidase; the functional rows use this molecule for it; source: bought: Origene
T2 sequence (looked up): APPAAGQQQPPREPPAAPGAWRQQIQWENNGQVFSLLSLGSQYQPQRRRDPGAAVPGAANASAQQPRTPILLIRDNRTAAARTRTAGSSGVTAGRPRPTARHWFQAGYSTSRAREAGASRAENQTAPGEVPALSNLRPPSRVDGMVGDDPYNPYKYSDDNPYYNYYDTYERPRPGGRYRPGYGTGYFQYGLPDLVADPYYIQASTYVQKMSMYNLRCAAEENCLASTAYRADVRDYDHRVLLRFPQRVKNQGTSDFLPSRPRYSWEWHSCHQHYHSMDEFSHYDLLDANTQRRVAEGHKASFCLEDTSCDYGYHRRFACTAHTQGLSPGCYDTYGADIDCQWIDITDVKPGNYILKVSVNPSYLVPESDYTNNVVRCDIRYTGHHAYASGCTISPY
The experiment in a line: ELISA; solid-phase assay: FMOD variants coated; serial dilutions of LOX; detected with anti-LOX antibody; apparent KD. As to conditions: both partners purified.

Here are results for 1 molecule from article PMC4825002, “Fibromodulin Interacts with Collagen Cross-linking Sites and Activates Lysyl Oxidase*” (The Journal of Biological Chemistry, 2016).

T1 sequence (P11087 152-1207, chain 1 of 2): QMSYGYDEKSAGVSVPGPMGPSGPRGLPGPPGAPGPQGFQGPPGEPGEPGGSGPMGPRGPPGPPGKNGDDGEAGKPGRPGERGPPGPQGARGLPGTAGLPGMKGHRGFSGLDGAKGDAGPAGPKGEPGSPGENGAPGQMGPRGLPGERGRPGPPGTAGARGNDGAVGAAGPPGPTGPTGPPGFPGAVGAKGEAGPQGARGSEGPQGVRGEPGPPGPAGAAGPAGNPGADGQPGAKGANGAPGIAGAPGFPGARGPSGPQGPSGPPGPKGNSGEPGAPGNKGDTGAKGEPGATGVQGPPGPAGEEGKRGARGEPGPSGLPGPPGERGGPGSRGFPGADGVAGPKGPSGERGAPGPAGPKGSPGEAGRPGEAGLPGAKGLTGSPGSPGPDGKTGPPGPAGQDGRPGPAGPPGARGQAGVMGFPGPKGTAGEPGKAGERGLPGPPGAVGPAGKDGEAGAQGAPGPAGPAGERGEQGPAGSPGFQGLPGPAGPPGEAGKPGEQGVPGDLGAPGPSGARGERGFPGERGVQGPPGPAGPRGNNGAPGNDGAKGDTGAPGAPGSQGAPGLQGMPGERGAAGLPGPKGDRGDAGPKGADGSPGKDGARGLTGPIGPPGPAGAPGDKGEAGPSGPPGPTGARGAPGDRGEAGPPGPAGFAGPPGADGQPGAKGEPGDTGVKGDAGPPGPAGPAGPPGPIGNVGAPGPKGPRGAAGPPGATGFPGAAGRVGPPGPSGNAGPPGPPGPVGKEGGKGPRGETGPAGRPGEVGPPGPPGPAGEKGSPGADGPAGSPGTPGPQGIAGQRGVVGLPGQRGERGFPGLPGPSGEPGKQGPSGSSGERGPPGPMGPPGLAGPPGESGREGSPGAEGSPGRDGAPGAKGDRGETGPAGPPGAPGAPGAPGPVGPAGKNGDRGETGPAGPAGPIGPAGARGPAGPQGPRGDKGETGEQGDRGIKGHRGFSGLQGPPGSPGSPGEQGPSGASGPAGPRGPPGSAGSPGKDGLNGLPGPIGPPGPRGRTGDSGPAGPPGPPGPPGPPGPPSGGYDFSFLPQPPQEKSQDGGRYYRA
T1 sequence (Q01149 86-1125, chain 2 of 2): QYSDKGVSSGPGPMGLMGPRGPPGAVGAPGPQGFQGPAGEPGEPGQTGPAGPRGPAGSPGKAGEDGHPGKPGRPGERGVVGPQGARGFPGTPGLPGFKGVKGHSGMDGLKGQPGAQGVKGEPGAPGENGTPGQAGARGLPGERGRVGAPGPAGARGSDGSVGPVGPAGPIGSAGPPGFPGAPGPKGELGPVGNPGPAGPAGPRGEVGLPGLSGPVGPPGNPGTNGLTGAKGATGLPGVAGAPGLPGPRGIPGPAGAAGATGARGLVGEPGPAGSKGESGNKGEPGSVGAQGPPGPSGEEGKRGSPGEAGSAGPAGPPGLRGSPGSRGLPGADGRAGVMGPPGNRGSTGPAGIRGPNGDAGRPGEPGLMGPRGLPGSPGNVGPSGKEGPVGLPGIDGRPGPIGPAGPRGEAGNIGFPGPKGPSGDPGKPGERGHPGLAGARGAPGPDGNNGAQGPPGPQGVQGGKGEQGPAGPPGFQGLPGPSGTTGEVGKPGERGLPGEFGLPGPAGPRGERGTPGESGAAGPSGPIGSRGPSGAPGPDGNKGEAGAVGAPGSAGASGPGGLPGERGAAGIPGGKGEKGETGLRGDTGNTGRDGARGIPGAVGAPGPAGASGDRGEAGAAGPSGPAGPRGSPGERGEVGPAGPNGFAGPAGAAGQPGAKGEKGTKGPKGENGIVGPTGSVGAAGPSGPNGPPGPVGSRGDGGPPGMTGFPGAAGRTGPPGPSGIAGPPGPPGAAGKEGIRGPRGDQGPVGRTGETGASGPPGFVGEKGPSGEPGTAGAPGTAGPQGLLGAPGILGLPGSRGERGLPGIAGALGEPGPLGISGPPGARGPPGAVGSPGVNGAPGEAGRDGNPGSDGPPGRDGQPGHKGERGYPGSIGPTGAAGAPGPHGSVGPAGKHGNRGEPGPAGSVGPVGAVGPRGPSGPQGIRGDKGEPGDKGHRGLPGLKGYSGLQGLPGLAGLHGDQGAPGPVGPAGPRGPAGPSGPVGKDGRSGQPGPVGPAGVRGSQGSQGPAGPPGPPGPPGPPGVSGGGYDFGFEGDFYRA

B1: His tag-modified recombinant fibromodulin (human, amino acids 19–376) (natural protein, UniProt Q06828 19-376, looked up)
chain: QYEDDPHWWFHYLRSQQSTYYDPYDPYPYETYEPYPYGVDEGPAYTYGSPSPPDPRDCPQECDCPPNFPTAMYCDNRNLKYLPFVPSRMKYVYFQNNQITSIQEGVFDNATGLLWIALHGNQITSDKVGRKVFSKLRHLERLYLDHNNLTRMPGPLPRSLRELHLDHNQISRVPNNALEGLENLTALYLQHNEIQEVGSSMRGLRSLILLDLSYNHLRKVPDGLPSALEQLYMEHNNVYTVPDSYFRGAPKLLYVRLSHNSLTNNGLASNTFNSSSLLELDLSYNQLQKIPPVNTNLENLYLQGNRINEFSISSFCTVVDVVNFSKLQVLRLDGNEIKRSAMPADAPLCLRLASLIEI
modifications: tyrosine sulfation (positions not given)
notes: fibromodulin, human, amino acids 19-376; also called FMOD; full-length FMOD; source: 293T cells (pCEP4 vector), purified (Ni-NTA-Sepharose, Superose 6)
For the molecule B1, the Kd in experiment [1] was ~250 nM; in experiment [2] it was ~150 nM.
